Laboratory results: patent US9644017B2, “Insulin derivatives having an extremely delayed time-action profile” (Sanofi-Aventis Deutschland GmbH, priority 2008, dated 2017)

Experiments:
[1] = cited from earlier work
[2] = tested on: healthy male normoglycemic Wistar rats; test: Blood glucose-lowering effect of novel insulin analogues in rats; assay type: in vivo, rat; conditions: 9 nmol/kg s.c., n=8, up to eight hours, FIG. 1
Method: The blood glucose-lowering effect of selected novel insulin analogues is tested in healthy male normoglycemic Wistar rats. Male rats receive subcutaneous injection of a dose of 9 nmol/kg of an insulin analogue. Blood samples are taken from the animals immediately before the injection of the insulin analogue and at regular intervals up to eight hours after the injection, and the blood glucose content therein is determined.

In the case of “Arg (A0), Gly (A21), Arg (B31), Arg (B32) human insulin [Compound 18 from Kohn et al.]”, the “calculated pI” value ([1]; calculated) is given as 7.58 and the “experimentally determined pI” value ([1]; experimentally determined) is given as 7.3.
With “Gly (A21), Arg (B31), Arg (B32) human insulin [insulin glargine]” the “hypoglycemic effect / time-action profile in rats” value [2] was “delayed action of insulin glargine cannot by contrast be unambiguously observed in rats”.
